{"source": "paper PMC9249894", "about": "(2022)", "molecular_target": "Ubiquitin (Homo sapiens, UniProt P0CG48)", "test": "NMR titration", "data": [{"binder": "CIN85 SH3c 263-333 (protein) DSRTKSKDYCKVIFPYEAQNDDELTIKEGDIVTLINKDCIDVGWWEGELNGRRGVFPDNFVKLLPPDFEKE", "values": [{"measurement": "Kd", "value": 370, "unit": "µM"}]}]}
